{"source": "paper PMC5153698", "biological_target": "T1, human chemokine receptor CXCR4, C-terminally tagged with Rluc8 or mVenus (human), P61073", "T1 chain": "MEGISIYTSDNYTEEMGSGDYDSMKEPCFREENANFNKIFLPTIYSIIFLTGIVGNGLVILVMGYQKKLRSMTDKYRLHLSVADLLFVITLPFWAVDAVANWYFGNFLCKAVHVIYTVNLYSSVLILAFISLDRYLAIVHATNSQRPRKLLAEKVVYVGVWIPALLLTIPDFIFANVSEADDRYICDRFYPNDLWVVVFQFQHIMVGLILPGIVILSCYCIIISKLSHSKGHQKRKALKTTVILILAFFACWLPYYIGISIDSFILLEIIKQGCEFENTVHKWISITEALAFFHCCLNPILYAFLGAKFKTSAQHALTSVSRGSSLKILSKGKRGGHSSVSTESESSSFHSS", "experiment": "FRET or BRET", "details": "remark: other sources report otherwise"}
{"binder": "human chemokine receptor CXCR4, C-terminally tagged with Rluc8 or mVenus, P61073 1-352 (receptor) MEGISIYTSDNYTEEMGSGDYDSMKEPCFREENANFNKIFLPTIYSIIFLTGIVGNGLVILVMGYQKKLRSMTDKYRLHLSVADLLFVITLPFWAVDAVANWYFGNFLCKAVHVIYTVNLYSSVLILAFISLDRYLAIVHATNSQRPRKLLAEKVVYVGVWIPALLLTIPDFIFANVSEADDRYICDRFYPNDLWVVVFQFQHIMVGLILPGIVILSCYCIIISKLSHSKGHQKRKALKTTVILILAFFACWLPYYIGISIDSFILLEIIKQGCEFENTVHKWISITEALAFFHCCLNPILYAFLGAKFKTSAQHALTSVSRGSSLKILSKGKRGGHSSVSTESESSSFHSS", "values": [{"measurement": "BRET50", "result": 0.11}]}
